This test concerns the target recombinant gp120 from HIV-1 strain IIIB (HIV-1 strain IIIB) (UniProt P04578).

“griffithsin produced in Escherichia coli (^ECGRFT) (from UniProt P84801 1-121) (natural protein)”: the EC50 of whole-cell HIV neutralization assay (XTT viability of CEM-SS cells challenged with HIV-1RF), purified ^ECGRFT is 0.33 nM.

Consider “griffithsin produced in rice endosperm (^OSGRFT), His6-tagged (from UniProt P84801 1-121) (natural protein)”, for which the EC50 of whole-cell HIV neutralization assay (XTT viability of CEM-SS cells challenged with HIV-1RF), purified ^OSGRFT worked out at 0.27 nM.

The values are drawn from article PMC4865440.
